Consider 4 molecules from PMC10528418 (Molecular cell, 2023).

To fix the notation:
B1: TFIIIC subunit τ95 (natural protein, S. cerevisiae, UniProt P32367 1-649, looked up)
chain: MPVEEPLATLSSIPDSSADQAPPLIADEFTLDLPRIPSLELPLNVSTKHSSIQKAIKMCGGIEKVKEAFKEHGPIESQHGLQLYLNDDTDSDGSKSYFNEHPVIGKRVPFRDESVILKVTMPKGTLSKNNNSVKDSIKSLKDSNKLRVTPVSIVDNTIKFREMSDFQIKLDNVPSAREFKSSFGSLEWNNFKSFVNSVPDNDSQPQENIGNLILDRSVKIPSTDFQLPPPPKLSMVGFPLLYKYKANPFAKKKKNGVTEVKGTYIKNYQLFVHDLSDKTVIPSQAHEQVLYDFEVAKKTKVYPGTKSDSKFYESLEECLKILRELFARRPIWVKRHLDGIVPKKIHHTMKIALALISYRFTMGPWRNTYIKFGIDPRSSVEYAQYQTEYFKIERKLLSSPIVKKNVPKPPPLVFESDTPGGIDSRFKFDGKRIPWYLMLQIDLLIGEPNIAEVFHNVEYLDKANELTGWFKELDLVKIRRIVKYELGCMVQGNYEYNKYKLKYFKTMLFVKESMVPENKNSEEGMGVNTNKDADGDINMDAGSQMSSNAIEEDKGIAAGDDFDDNGAITEEPDDAALENEEMDTDQNLKVPASIDDDVDDVDADEEEQESFDVKTASFQDIINKIAKLDPKTAETMKSELKGFVDEVDL
B2: TFIIIC subunit τ91 (natural protein, S. cerevisiae, UniProt Q06339 1-672, looked up)
chain: MAVIPAKKRGRPRKSVVAEVPYDSLASPVSENSGSKRPRRNASKKAVANFAQLVHAGRDDVINTTQVNNVDDTDDDDFVLNDEGDGEESDNVEIEFENELESTKNEVADLNSSGSGASVRPSGRRNTVQKLRLKKNSTKNMKSSSPGSSLGQKGRPIRLLKDLSSARDKIERIYGLNKEKLLLLAKVKEGFETSVFDFPFKNIQPDSPYFVCLDPPCKKESAYNKVIGDKNRTVYHEINKTEFENMIKLRTKRLKLLIGEVDAEVSTGDKIEFPVLANGKRRGFIYNVGGLVTDIAWLNIEENTDIGKDIQYLAVAVSQYMDEPLNEHLEMFDKEKHSSCIQIFKMNTSTLHCVKVQTIVHSFGEVWDLKWHEGCHAPHLVGCLSFVSQEGTINFLEIIDNATDVHVFKMCEKPSLTLSLADSLITTFDFLSPTTVVCGFKNGFVAEFDLTDPEVPSFYDQVHDSYILSVSTAYSDFEDTVVSTVAVDGYFYIFNPKDIATTKTTVSRFRGSNLVPVVYCPQIYSYIYSDGASSLRAVPSRAAFAVHPLVSRETTITAIGVSRLHPMVLAGSADGSLIITNAARRLLHGIKNSSATQKSLRLWKWDYSIKDDKYRIDSSYEVYPLTVNDVSKAKIDAHGINITCTKWNETSAGGKCYAFSNSAGLLTLEYLS
B3: S. cerevisiae TFIIIA (natural protein)
chain: MGGEVLNNEGMPLAELKQETIPISRSESSESLNSLTSTRSSSSNRPKTYFCDYDGCDKAFTRPSILTEHQLSVHQGLRAFQCDKCAKSFVKKSHLERHLYTHSDTKPFQCSYCGKGVTTRQQLKRHEVTHTKSFICPEEGCNLRFYKHPQLRAHILSVHLHKLTCPHCNKSFQRPYRLRNHISKHHDPEVENPYQCTFAGCCKEFRIWSQLQSHIKNDHPKLKCPICSKPCVGENGLQMHMIIHDDSLVTKNWKCHICPDMSFSRKHDLLTHYGSIHTEEDIPLELKYKISDIQQLVQDHGVQLGNSKHSNEQDEEKISNRLRKRRKLTENNNVEFLQNEVDLEKRLESGENGLNLLLNTVGRKYRCFYNNCSRTFKTKEKYEKHIDKHKVHELKLKILQEKEENKTLVDQNHKEPFIIQKETQSAGDK
B4: TFIIIC subunit τ131 (natural protein, S. cerevisiae, UniProt P33339 1-1025, looked up)
chain: MAAGKLKKEQQNQSAERESADTGKVNDEDEEHLYGNIDDYKHLIQDEEYDDEDVPHDLQLSEDEYNSERDSSLLAEFSDYGEISEDDEEDFMNAIREASNFKVKKKKKNDKGKSYGRQRKERVLDPEVAQLLSQANEAFVRNDLQVAERLFNEVIKKDARNFAAYETLGDIYQLQGRLNDCCNSWFLAAHLNASDWEFWKIVAILSADLDHVRQAIYCFSRVISLNPMEWESIYRRSMLYKKTGQLARALDGFQRLYMYNPYDANILRELAILYVDYDRIEDSIELYMKVFNANVERREAILAALENALDSSDEESAAEGEDADEKEPLEQDEDRQMFPDINWKKIDAKYKCIPFDWSSLNILAELFLKLAVSEVDGIKTIKKCARWIQRRESQTFWDHVPDDSEFDNRRFKNSTFDSLLAAEKEKSYNIPIDIRVRLGLLRLNTDNLVEALNHFQCLYDETFSDVADLYFEAATALTRAEKYKEAIDFFTPLLSLEEWRTTDVFKPLARCYKEIESYETAKEFYELAIKSEPDDLDIRVSLAEVYYRLNDPETFKHMLVDVVEMRKHQVDETLHRISNEKSSNDTSDISSKPLLEDSKFRTFRKKKRTPYDAERERIERERRITAKVVDKYEKMKKFELNSGLNEAKQASIWINTVSELVDIFSSVKNFFMKSRSRKFVGILRRTKKFNTELDFQIERLSKLAEGDSVFEGPLMEERVTLTSATELRGLSYEQWFELFMELSLVIAKYQSVEDGLSVVETAQEVNVFFQDPERVKMMKFVKLAIVLQMDDEEELAENLRGLLNQFQFNRKVLQVFMYSLCRGPSSLNILSSTIQQKFFLRQLKAFDSCRYNTEVNGQASITNKEVYNPNKKSSPYLYYIYAVLLYSSRGFLSALQYLTRLEEDIPDDPMVNLLMGLSHIHRAMQRLTAQRHFQIFHGLRYLYRYHKIRKSLYTDLEKQEADYNLGRAFHLIGLVSIAIEYYNRVLENYDDGKLKKHAAYNSIIIYQQSGNVELADHLMEKYLSI

Assay [1] deals with T1, TFIIIC subunit τ138 (S. cerevisiae, UniProt P34111 1-1160).
T1 sequence (looked up): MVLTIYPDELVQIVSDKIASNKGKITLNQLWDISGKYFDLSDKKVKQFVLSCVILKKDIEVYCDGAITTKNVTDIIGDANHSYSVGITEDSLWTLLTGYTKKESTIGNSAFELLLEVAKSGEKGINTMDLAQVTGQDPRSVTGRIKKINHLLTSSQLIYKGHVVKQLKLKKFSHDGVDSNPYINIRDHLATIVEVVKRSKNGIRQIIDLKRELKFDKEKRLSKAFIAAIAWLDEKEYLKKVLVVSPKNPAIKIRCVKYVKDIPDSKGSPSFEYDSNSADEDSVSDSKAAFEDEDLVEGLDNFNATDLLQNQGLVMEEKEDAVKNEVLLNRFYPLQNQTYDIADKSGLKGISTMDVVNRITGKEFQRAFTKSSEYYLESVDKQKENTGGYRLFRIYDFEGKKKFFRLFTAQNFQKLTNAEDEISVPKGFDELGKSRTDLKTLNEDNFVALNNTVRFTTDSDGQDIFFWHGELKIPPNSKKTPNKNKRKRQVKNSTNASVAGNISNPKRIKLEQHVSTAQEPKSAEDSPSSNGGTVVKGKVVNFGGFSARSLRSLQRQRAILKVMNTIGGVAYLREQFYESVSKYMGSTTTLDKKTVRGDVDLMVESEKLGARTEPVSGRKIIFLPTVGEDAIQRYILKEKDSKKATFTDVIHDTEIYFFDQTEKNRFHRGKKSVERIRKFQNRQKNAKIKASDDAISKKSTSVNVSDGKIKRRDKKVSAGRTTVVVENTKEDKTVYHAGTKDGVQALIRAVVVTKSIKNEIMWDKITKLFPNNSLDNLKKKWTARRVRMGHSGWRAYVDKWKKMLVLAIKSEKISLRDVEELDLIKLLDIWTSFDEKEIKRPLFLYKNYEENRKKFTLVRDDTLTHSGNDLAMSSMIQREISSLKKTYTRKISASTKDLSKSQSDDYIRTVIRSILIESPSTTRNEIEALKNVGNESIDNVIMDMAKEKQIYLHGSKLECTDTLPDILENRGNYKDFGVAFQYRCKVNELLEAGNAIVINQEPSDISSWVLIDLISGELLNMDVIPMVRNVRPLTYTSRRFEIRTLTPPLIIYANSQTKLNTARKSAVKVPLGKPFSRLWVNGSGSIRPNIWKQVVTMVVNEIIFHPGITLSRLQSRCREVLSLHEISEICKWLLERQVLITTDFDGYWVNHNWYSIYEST
Nature of the assay: cryo-EM structure.

Assay [2] deals with B4. Nature of the assay: cryo-EM structure.

Consider B1, for which the binding result in assay [1] and in assay [2] was “binds” in each case.
In the case of B2, the binding result in assay [2] is “binds”.
On to B3, for which the binding result in assay [1] is recorded as “binds”.
On the same count and under the same terms, the entry for B4 is “binds”.
